From patent CN110028581A

Key:
[1] = target: 微囊藻毒素抗体IgG in ascites (腹水)
[2] = target: 微囊藻毒素抗体Fab片段 (microcystin antibody Fab fragment)
[3] = target: 微囊藻毒素抗体Fab片段 (microcystin antibody Fab fragment); experiment: ic-ELISA: free MC-LR (1000 ng/mL dilution) against coated MC-LR-OVA for the Fab

微囊藻毒素-LR (microcystin-LR) (peptide)
抑制率 (inhibition rate) [1]: 91%
IC20 [2]: 0.15 ng/mL
IC50 [2]: 0.56 ng/mL
IC80 [2]: 2.1 ng/mL
抑制率 (inhibition rate) [3]: 99%
